Measured values taken from PMC10009750, “Development of Selective ADAMTS-5 Peptide Substrates to Monitor Proteinase Activity” (Journal of Medicinal Chemistry, 2023).
Non-standard residues stand in square brackets, D forms with d. No end group written: not given here. Tyr(3-NO2) = N[C@@H](Cc1ccc(O)c([N+](=O)[O-])c1)C(=O)O; 2Abz = Nc1ccccc1C(=O)O

Columns and labels:
Format in all cases: biochemical
[1] = molecular target: T1, MMP-2ΔC (catalytic domain of MMP-2) (Homo sapiens, UniProt P08253); experiment: Selectivity studies: cleavage of FRET peptide substrates by MMP-2ΔC; conditions: substrate 20 μM, MMP-2ΔC 5–10 nM, TNC buffer with 0.005% (v/v) Brij-35, 37 °C; mean of 3–4 independent experiments in triplicate
T1 construct: the catalytic domain of MMP-2, i.e., MMP-2ΔC; made in house; host or cells: HEK293 cells (previously transfected stocks)
T1 sequence (P08253 110-465 limits assumed, stated change not applied): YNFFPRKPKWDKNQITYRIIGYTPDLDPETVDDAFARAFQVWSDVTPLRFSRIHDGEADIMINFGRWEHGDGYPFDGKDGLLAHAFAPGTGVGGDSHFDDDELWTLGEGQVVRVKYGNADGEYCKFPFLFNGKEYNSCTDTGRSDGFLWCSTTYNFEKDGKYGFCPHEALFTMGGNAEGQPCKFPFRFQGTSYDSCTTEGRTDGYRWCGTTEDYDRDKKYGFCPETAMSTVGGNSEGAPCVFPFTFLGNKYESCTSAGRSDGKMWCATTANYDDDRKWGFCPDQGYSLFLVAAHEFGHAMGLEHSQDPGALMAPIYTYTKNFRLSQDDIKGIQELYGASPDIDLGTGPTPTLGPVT
Protocol: (§1) All proteinase assays were performed at 37 °C in a SpectraMax M5 spectrophotometer (Molecular Devices, San Jose, USA) using a 96-well black microplate (Greiner bio-one, Stonehouse, UK) unless otherwise stated. […] N-TIMP-3 was purified as described previously[30] and CT-1746 was a gift from Dr. Yoshifumi Itoh (Kennedy Institute of Rheumatology, University of Oxford). All analyses were carried out using Prism 9 software (GraphPad, La Jolla, CA, USA).
(§2) Selectivity studies are described for Abz-TESE↓SRGAIY-Dpa-KK-NH2, the library parent peptide 3, and hit peptides 18–26. A solution of Abz-TESE↓SRGAIY-Dpa-KK-NH2 (22.22 μM) in freshly prepared TNC buffer with 0.005% (v/v) Brij-35 (90 μL) was added to a 96-well clear bottom microplate (Greiner bio-one, Stonehouse, UK) in triplicate. A substrate-only background control was also added in triplicate (90 μL). The resultant solutions were incubated at 37 °C (30 min). An ADAMTS or MMP proteinase was added to substrate wells (10 μL) to give a final proteinase concentration of either 50–90 nM (TS4-4), 25–200 nM (TS5-5), 5–10 nM (MMP-2ΔC), 30 nM (MMP-9ΔC), 92 nM (MMP-1), or 3 μM (MMP-3). TNC buffer with 0.005% (v/v) Brij-35 was added to substrate-only control wells (10 μL). The relative fluorescence intensity was measured at 37 °C for 1 h with readings every 20 s. Activity was read from underneath the microplate, which was covered with a low evaporation lid. […] For each ADAMTS and MMP proteinase, the assay was performed 2–4 times. […] Final rates were expressed as a percentage of substrate cleavage by TS5-5 (mean ± SEM) or in μM s^–1 μM^–1 of proteinase.

MMP-1 (full length) = experiment: Selectivity studies: cleavage of the current substrate by MMP-1; conditions: substrate 20 μM, MMP-1 92 nM, up to 72 h, 37 °C; single triplicate experiment
Protocol: as §1
Selectivity studies are described for Abz-TESE↓SRGAIY-Dpa-KK-NH2, the library parent peptide 3, and hit peptides 18–26. A solution of Abz-TESE↓SRGAIY-Dpa-KK-NH2 (22.22 μM) in freshly prepared TNC buffer with 0.005% (v/v) Brij-35 (90 μL) was added to a 96-well clear bottom microplate (Greiner bio-one, Stonehouse, UK) in triplicate. A substrate-only background control was also added in triplicate (90 μL). The resultant solutions were incubated at 37 °C (30 min). […] The relative fluorescence intensity was measured at 37 °C for 1 h with readings every 20 s. Activity was read from underneath the microplate, which was covered with a low evaporation lid. […] Final rates were expressed as a percentage of substrate cleavage by TS5-5 (mean ± SEM) or in μM s^–1 μM^–1 of proteinase.

[2] = molecular target: T2, TS5-5 (combined catalytic and disintegrin domain of ADAMTS-5) (Homo sapiens, UniProt Q9UNA0); experiment: Cleavage of FRET peptide substrates by TS5-5 in solution (activity/selectivity studies); conditions: substrate 20 μM, 37 °C
T2 construct: ADAMTS-5 (i.e. TS5-5, residues 264–555); FLAG; made in house; host or cells: HEK293 cells (previously transfected stocks)
T2 sequence (Q9UNA0 264-555): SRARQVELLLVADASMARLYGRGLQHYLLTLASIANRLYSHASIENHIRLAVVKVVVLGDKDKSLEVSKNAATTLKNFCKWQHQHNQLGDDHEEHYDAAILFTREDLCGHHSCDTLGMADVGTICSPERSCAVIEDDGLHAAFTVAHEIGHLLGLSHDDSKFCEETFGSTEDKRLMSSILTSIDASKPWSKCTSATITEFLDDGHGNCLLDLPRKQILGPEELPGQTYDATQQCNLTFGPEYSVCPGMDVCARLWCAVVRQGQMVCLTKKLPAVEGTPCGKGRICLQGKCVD
Protocol: as §1
(§3) To test whether active TS5-5 had been purified, three concentrations of proteinase were assayed. A solution of Abz-TESE↓SRGAIY-Dpa-KK-NH2 (22.22 μM) in freshly prepared TNC buffer with 0.02% (v/v) Brij-35 (180 μL) was added to a 96-well black microplate in triplicate for each proteinase concentration. A substrate-only background control was also added in triplicate (180 μL). The resultant solutions were incubated at 37 °C (30 min). TS5-5 proteinase in TNC buffer with 0.02% (v/v) Brij-35 (20 μL) was added to wells to give final proteinase concentrations of 80 nM, 40 nM and 20 nM. TNC buffer with 0.02% (v/v) Brij-35 (20 μL) was also added to background control wells. The change in RFU was measured at 37 °C for 1 h, with readings every 20 s. Following subtraction of background fluorescence intensity, linear regression analysis of the linear part of each curve was used to determine the cleavage rate, which was expressed as the mean ± SEM in RFU s^–1. For cases where a single concentration of TS5-5 or TS4-4 was assayed, the same procedure was used but with 0.005% (v/v) Brij-35 and using the 5-FAM-AE↓LQGRPISIAK-TAMRA substrate for TS4-4 (0.56 μM). To convert cleavage rates to nM s^–1 nM^–1, the rate in RFU s^–1 was divided by the final concentration of proteinase (nM), then divided by the gradient of the calibration curve for Abz or 5-FAM (expressed in RFU nM^–1).
as §2

TS5-5 (ADAMTS-5) = molecular target: T3, TS5-5 (ADAMTS-5) (Homo sapiens, UniProt Q9UNA0); experiment: Rate of cleavage of 3 and 26 by TS5-5 at different substrate concentrations; conditions: TS5-5 57 nM, after 1 h, 37 °C
T3 construct: ADAMTS-5 (i.e. TS5-5, residues 264–555); FLAG; made in house; host or cells: HEK293 cells (previously transfected stocks)
T3 sequence (Q9UNA0 264-555): T2 sequence (Q9UNA0 264-555)
Protocol: as §3, with “A solution of Abz-TESE↓SRGAIY-Dpa-KK-NH2 (22.22 μM) in freshly prepared TNC buffer with 0.02% (v/v) Brij-35 (180 μL) was added to a 96-well black microplate in triplicate for each proteinase concentration.” left out, “TS5-5 proteinase in TNC buffer with 0.02% (v/v) Brij-35 (20 μL) was added to wells to give final proteinase concentrations of 80 nM, 40 nM and 20 nM.” left out
This was carried out according to the procedure described for activity studies of ADAMTSs with a single concentration of proteinase, except that a range of substrate concentrations was used for 3 and 26 (20 to 0.63 μM). Additionally, control wells for each substrate concentration were used in single replicate. The final concentration of TS5-5 was 57 nM.

Substance	rate of cleavage by MMP-2ΔC [1] [μM s^–1 μM^–1]	cleavage by MMP-1 (MMP-1 (full length))	improvement in cleavage (overall cleavage rate) by TS5-5 compared to the current substrate [2] [fold]	lowest concentration of substrate detectibly cleaved by TS5-5 (ΔRFU ≥ 300) (TS5-5 (ADAMTS-5)) [µM]
Abz-TESE↓SRGAIY-Dpa-KK-NH2 [current, ortho-aminobenzoyl(Abz)-TESE↓SRGAIY-N-3-[2,4-dinitrophenyl]-L-2,3-diaminopropionyl(Dpa)-KK-NH2, reference compound]	0.56	no cleavage was observed	–	–
KY(NO2)SENESRGK(Abz)IYYKKG (K[Tyr(3-NO2)]SENESRGK(2Abz)IYYKKG) [Compound 26]	–	–	~3	5
KY(NO2)TESESRGK(Abz)IYYKKG (K[Tyr(3-NO2)]TESESRGK(Abz)IYYKKG) [Compound 3]	–	–	~4	2.5
